Drawing on patent publication US20100293752, “DEVICE FOR DECELERATING THE ROTATION OF A HINGE IN PARTICULAR FOR FURNITURE AND A HINGE PARTICULARLY FOR FURNITURE HAVING SAID DECELERATION DEVICE” (published 2010), this text covers Kd for one molecule.

This series concerns the target osteopontin (OPN) (Homo sapiens, UniProt P10451 P10451:17-314). Put plainly: filter; double-filter nitrocellulose, selection buffer, 37 C; OPN species not specified for this assay. The note with it: label: 5'-32P; stem-loop (predicted, mFold). As to the method: The RNA-protein equilibrium dissociation constant (Kd) of OPN-R3 was characterized using the double-filter nitrocellulose filter binding method (Gopinath, Anal. Bioanal. Chem. 387:171 (2007)). For all binding assays, RNAs were dephosphorylated using bacterial alkaline phosphatase (Invitrogen, Carlsbad, Calif.) and 5′-end labeled using T4 polynucleotide kinase (New England Biolabs, Beverly, Mass.) and γ-³²P-ATP (MP Biomedicals, Solon, Ohio). Direct binding assays were carried out by incubating ³²P-labeled RNA at a concentration of less than 0.1 nM and target protein at concentrations ranging from 300 nM to 10 μM in selection buffer at 37° C. The fraction of RNA bound was quantified with a PhosphorImager (Molecular Dynamics, Sunnyvale, Calif.). Raw binding data were corrected for nonspecific background binding of radiolabeled RNA to the nitrocellulose filter.

In general, Kd refers to the free concentration of one partner at which half of the binding sites on the other are occupied at equilibrium, for simple one-to-one binding.

Chain of osteopontin (OPN) (P10451 17-314, one chain of several): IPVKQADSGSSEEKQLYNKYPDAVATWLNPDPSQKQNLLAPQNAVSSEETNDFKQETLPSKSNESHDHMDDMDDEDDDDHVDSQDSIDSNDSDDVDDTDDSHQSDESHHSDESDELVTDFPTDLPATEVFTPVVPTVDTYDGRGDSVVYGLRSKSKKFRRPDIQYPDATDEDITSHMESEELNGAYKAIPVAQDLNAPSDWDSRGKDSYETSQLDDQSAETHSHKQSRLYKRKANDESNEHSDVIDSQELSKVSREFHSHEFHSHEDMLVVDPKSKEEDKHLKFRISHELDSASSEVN

B1: OPN-R3 32P-labelled (ssRNA)
RNA: CGGCCACAGAAUGAAAAACCUCAUCGAUGUUGCAUAGUUG
modifications: 2'-F on all C and U
With B1, the Kd is 0.018 µM.
